The target of the experiment is Ubiquitin (wild-type), 15N isotopically labelled (UniProt P0CG47 1-76). Description: NMR titration.

For CMQIFVKTLTGKTITLEVC (disulphide bridge between the two terminal cysteines) [stapled Cys-Ubq3-Cys peptide (stapled xenonucleus)], the binding result is given as “binds”.
